Assay results as given in the supplement of paper PMC9170038.

System: MS2 coat protein
Assay: apparent KD of MS2 coat protein; designed switch direction (-1 OFF switch, 1 ON switch): -1; higher = weaker reporter binding
Procedure, shortened: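 Designed RNA switches were transcribed on Illumina chips by stalled E. coli RNA polymerase and titrated with SNAP-549-labelled MS2 coat protein from 0.7 or 1.5 nM, doubling to 3 µM. Step length ran from 0.8–1.5 h at the lowest concentration to 10–20 min at the highest. The apparent KD is the median over clusters for each design, from curve-fitted normalised cluster fluorescence.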

[1] = Eterna round: R95, input ligand: FMN 200 uM
[2] = Eterna round: R95, input ligand: microRNA oligo, concentration not stated
[3] = Eterna round: R95, input ligand: none
[4] = input ligand: microRNA oligo, concentration not stated

Row | Sequence | apparent KD of MS2 coat protein (input ligand: FMN 200 uM) [nM] | apparent KD of MS2 coat protein (input ligand: none) [nM] | apparent KD of MS2 coat protein [1] [nM] | apparent KD of MS2 coat protein [2] [nM] | apparent KD of MS2 coat protein [3] [nM] | apparent KD of MS2 coat protein [4] [nM]
1 | UCCUUACUGGUCAGGAUAUACAGUCGCGGGUGGGUGUAGAAGGGACAUGAGGAUCACCCAUGUACGUUACAGCC [alecazam54i] (Eterna round: R97, puzzle: Brourd's mod of Exclusion 4) | 27.6 | 30.2 | – | – | – | –
2 | UGGUAACAUGAGGAUCACCCAUGUCAGGAUAUCAGUAAGAAGAGAGGAGAGUAGAAGAUGAGAAGGGACUAUAU [Excluse me! 9 - Jieux - Exclusion 1] (puzzle: Exclusion 1) | – | – | 26.4 | 29.9 | 37.4 | –
3 | AGGGAUAAAGGAUAUACAUGAGGAUCACCCAUGUUGAGGAAAGUGAGAUGAGGAGGAAGUAGAAGGUUAGGCGG [JR_Exclu3_Sub084] (puzzle: Exclusion 3) | – | – | 35.7 | 33.9 | 31.4 | –
4 | GUAUAUAGUGUGAGGAUAUGCUGGUCCUUGGAUCAGCAGAAGGCACAUGAGGAUCACCCAUGUAGUUUAUUAUU [Mat - Exclusion 4 - JL Mod - D9] (puzzle: Brourd's mod of Exclusion 4) | – | – | – | 24.1 | – | –
5 | CAGUACAGAGGAUAUACAUGAGGAUCACCCAUGUGUUUCAGGUACGAGAGUACCGAAUGUAGAAGGCUGUACUG [jl-ex3-4.27 salish99 mod] (Eterna round: R97, puzzle: Exclusion 3) | 229 | 24.5 | – | – | – | –
6 | GGUUGACAUGAGGAUCACCCAUGUGAGGAUAUGCGAGAGAAAAAAGUGAGGAAGAGAAGCAGAAGGCGCUGUCG [salish99-ex1_r3_014] (puzzle: Exclusion 1) | – | – | 68.7 | 45.1 | 106 | –
7 | GGCAGGCUAGAGGAUAUGCAUUGGCUUGGCCAAGCAGAAGGCUAGACAUGAGGAUCACCCAUGUGUUCCUUGUG [jl-ex6-4.36 ViennaUCT mod] (Eterna round: R97, puzzle: Exclusion 6) | 83.5 | 93.6 | – | – | – | –
8 | GGUUGGCGAGGAUAUACAUGAGGAUCACCCAUGUGAGAAAAAAAAGUGAGGAAGAAAAGUAGAAGGCGCUGACG [salish99_ex3_r3_015] (puzzle: Exclusion 3) | – | – | 67.7 | 37.7 | 35.6 | –
9 | GGAUAAGGCGAGGAUAUCCAGAAACCCGACAAAGGAGAAGGCGCAACAUGAGGAUCACCCAUGUGGGUGCAUGU [Xeaormara] (puzzle: Exclusion 6) | – | – | 1080 | 254 | 280 | –
10 | UACAUGAGGAUCACCCAUGUACCUUAUGUAAGAGUGGGAAGUAAGGAUAUAUAUGAAGGAAUGAAAUAGAAGGUGCAUAGAGAG [Default title] (Eterna round: R96, puzzle: Exclusion NG 3) | 121 | 93.3 | – | – | – | 97.4
11 | GACCUCCCUGUAAGGAUAUCCAUGCAUCAAAGCAAGGAGAAGGUACAUGAGGAUCACCCAUGUCACCCGCGUUA (Eterna round: R97, puzzle: Brourd's mod of Exclusion 4) | 23.1 | 15.4 | – | – | – | –
12 | AUAUAAACAUAGGAUAUCGAAUUUAUCAUUUAACGAGAAGGAUGAACAUGAGGAUCACCCAUGUGGUAUCAUGG [Mat - Exclusion 6 - JL Mod - D5] (puzzle: Exclusion 6) | – | – | 553 | 333 | 340 | –
13 | ACAAGCUUAAUCAGUAUGAACAUGAGGAUCACCCAUGUAAAAGGGAAUACUAUUGGGUUUUUUAAAGCUCGUCUUAU [JR_STOV1_Sub017] (Eterna round: R97, puzzle: Sensor, turn-off variant 1) | 23 | 21.8 | – | – | – | –
14 | GAGUUAACAUGAGGAAUAUACAUGAGGAUCACCCAUGUUAACAAAACUUUUGCUCGUCUUAUAACAACAAUUAACUC [Alarm 2 - Jieux - Sensor, turn-off variant 1] (Eterna round: R97, puzzle: Sensor, turn-off variant 1) | 347 | 133 | – | – | – | –
15 | UUUAAUUUUUUUUUUUUACAAGCUUUUUGCUCGUCUUAUACAUGAGGAUCACCCAUGUGGAUGGAGGAUAAAUUAUC [JMF 31] (puzzle: Sensor v3, turn-off variant 2) | – | – | 20.1 | 18.7 | 16.2 | –
16 | UGUGGGUCAGGAUAUUCUAUUUAUUACAUGAGGAUCACCCAUGUGAAUGUACAAGGGUGUGAAGAAGGGACUUGUG [LRO-Excl5-02-mod A17d by Omei] (Eterna round: R97, puzzle: Exclusion 5) | 793 | 2360 | – | – | – | –
17 | GAAAACGUAGGAUAUUAAUACUUAUACAUGAGGAUCACCCAUGUUUGGUGGGUCAAAGAAUGAGAAGGGCGAUGAA [EX5 #10] (Eterna round: R97, puzzle: Exclusion 5) | 261 | 376 | – | – | – | –
18 | GUAGAGUCAGGAUAUACAAGAUCGAUAGAUCGGCGGUCCAUACAUGAGGAUCACCCAUGUAGAAGGGACUCUAC [Mat - Exclusion 2 - Eli Mod - D5] (Eterna round: R97, puzzle: Exclusion 2) | 514 | 27.2 | – | – | – | –

Row | Sequence | apparent KD of MS2 coat protein (input ligand: FMN 200 uM) [nM] | apparent KD of MS2 coat protein (input ligand: none) [nM] | apparent KD of MS2 coat protein [1] [nM] | apparent KD of MS2 coat protein [2] [nM] | apparent KD of MS2 coat protein [3] [nM] | apparent KD of MS2 coat protein [4] [nM]
19 | GCGGUAUUCCCUGGAGUACCAUACAUGAGGAUCACCCAUGUAUAGGAUAUUGCAGGAGACAGCUGCGAGAAGGGUACAGGGUGU [Dierceza] (Eterna round: R96, puzzle: Exclusion NG 3) | 26.6 | 15.9 | – | – | – | 14.4
20 | UUUUACAUAGGAUAUAGUUUGUUGUACAUGAGGAUCACCCAUGUUUUUGUUUGUGCUUUUCUAGAAGGAUGUUUCU [JR_E5_Sub016] (puzzle: Exclusion 5) | – | – | – | 28.9 | – | –
21 | UCAUAGUGAGGAUAUCGGUCCCUGACAAAUAGUUGGGUUAUUGAGAAGGCACAUGAGGAUCACCCAUGUGUCCG [EX4 C.5] (Eterna round: R97, puzzle: Exclusion 4) | 19.7 | 13.5 | – | – | – | –
22 | CAAUUCAGAGGAUAUGCGCAUAGAUAAGACUUUUUUUCUUAACAUGAGGAUCACCCAUGUAGAAGGCUGUAAAC [Ex2 #62] (Eterna round: R97, puzzle: Exclusion 2) | 16.5 | 16.8 | – | – | – | –
23 | UCCAGACAUGAGGAUCACCCAUGUGAGGAUAUGAUGCGAUCGUCGAAAGACGAUAGCAUCAGAAGGCACGUAUG [Fiskers Ex 1 - 15] (puzzle: Exclusion 1) | – | – | – | 32.6 | – | –
24 | AGGUGUAGAGGAUAUCGAAUCCUUUACAUGAGGAUCACCCAUGUCCUGGGCACCCAGGACCGAGAAGGCUACACCA [Omei Ex5 D33] (Eterna round: R97, puzzle: Exclusion 5) | 40.2 | 2350 | – | – | – | –
25 | UUUUUCUCAGGAUAUACAUGAGGAUCACCCAUGUAUAUUAAGGAUAAUACAUGGGAAUGUAGAAGGGAGCUCAU [Omei Ex3 Pseudoloop 12] (Eterna round: R97, puzzle: Exclusion 3) | 106 | 160 | – | – | – | –
26 | CAGUACUGAGGAUAUACAUGAGGAUCACCCAUGUGUGCCAGCUAGGAAACUAGCAAAAGUAGAAGGCAGUACUG [salish99_ex3_r3_082] (puzzle: Exclusion 3) | – | – | 102 | 12 | 11.9 | –
27 | GUAAAGUGAGGAUAUGGUAAAUUAAUUAUUAAUUAAUUAAUCCAGAAGGCACAUGAGGAUCACCCAUGUAUAUG [Mat - Exclusion 4 - D88] (puzzle: Exclusion 4) | – | – | – | 30 | – | –
28 | UAUUAGCAAGUAAGAUCCCACAUGAGGAUCACCCAUGUGCUCGUCAUAUCACGUACUGUGAGGAAACUCACGGUACG [Sensor-V1 #85] (Eterna round: R97, puzzle: Sensor, turn-off variant 1) | 114 | 128 | – | – | – | –
29 | CCAUUCAGAGGAUAUGCGCAUAAAUAAAACUUUUUUUUUUAACAUGAGGAUCACCCAUGUAGAAGGCUGUAACC [Ex2 #45] (Eterna round: R97, puzzle: Exclusion 2) | 27.2 | 26.7 | – | – | – | –
30 | UACAUGAGGAUCACCCAUGUUUUGUCGUGUAUGGUAUUUAUCUAGGAUAUCAAUGUAUUUAUUCAUGAGAAGGAGAAUAUUAAU [JMF's solution 48] (Eterna round: R96, puzzle: Exclusion NG 3) | 32.4 | 33.7 | – | – | – | 28.3
31 | CGGCAAUCCAAGGAUAUGCUAGACGAAAGUCUAGCAGAAGGUGGAACAUGAGGAUCACCCAUGUGUCCAAGCCG [Eli x6 4.04] (Eterna round: R97, puzzle: Exclusion 6) | 21.1 | 15.3 | – | – | – | –
32 | AAGGAUAGAGGAUAUACAUAGAUACAGGUUCAUGUAGAACUACAUGAGGAUCACCCAUGUAGAAGGCUAUCCUA [Fiskers Ex 2 - 8] (puzzle: Exclusion 2) | – | – | 113 | 20.8 | 21.1 | –
33 | ACGUAACGAGCUUGGUCCAACAUGAGGAUCACCCAUGUGCUCGUCUUAUAACGUACUGUCACGUUAGUGAUAGUGCG [Sensor v3, turn-off variant 1 (MOD of Eli's v1-13 v.6)] (puzzle: Sensor v3, turn-off variant 1) | – | – | 286 | 194 | 360 | –
34 | ACCUCACUUGAGGAUCACCCAAGUCAGGAUAUACUCGUUUGCCACAAAACGCGGCAUUGUAGAAGGGACGGGCU [Esusso] (Eterna round: R97, puzzle: Exclusion 1) | 30 | 21.5 | – | – | – | –
35 | CCGAAUAAGCAGGAUAUCGUAUCGGAAACGAUACGAGAAGGGUUAACAUGAGGAUCACCCAUGUUCCUUAACGG [Fiskers Ex 6 - 17] (puzzle: Exclusion 6) | – | – | – | 17.4 | – | –
